Experimental data reported in article PMC1779432.

Target: Soluble HLA-DR4 (DRB1*0401) (human)

CII(256-276)(F263N, E266A) analog peptide
IL-4 secretion by pooled splenocytes and lymph node cells of CII-immunized DR4 transgenic mice (chimeric DR4 on the cells) cultured with 100 μg/ml peptide: 66 pg/mL

CII(256-276)(F263N, E266D) analog peptide
IL-4 secretion by pooled splenocytes and lymph node cells of CII-immunized DR4 transgenic mice (chimeric DR4 on the cells) cultured with 100 μg/ml peptide: 48 pg/mL
